# Measured values from IntAct's records for PubMed 19850925.
# B1: Complement factor H (Homo sapiens), P08603 (parent)
# chain: MRLLAKIICLMLWAICVAEDCNELPPRRNTEILTGSWSDQTYPEGTQAIYKCRPGYRSLGNVIMVCRKGEWVALNPLRKCQKRPCGHPGDTPFGTFTLTGGNVFEYGVKAVYTCNEGYQLLGEINYRECDTDGWTNDIPICEVVKCLPVTAPENGKIVSSAMEPDREYHFGQAVRFVCNSGYKIEGDEEMHCSDDGFWSKEKPKCVEISCKSPDVINGSPISQKIIYKENERFQYKCNMGYEYSERGDAVCTESGWRPLPSCEEKSCDNPYIPNGDYSPLRIKHRTGDEITYQCRNGFYPATRGNTAKCTSTGWIPAPRCTLKPCDYPDIKHGGLYHENMRRPYFPVAVGKYYSYYCDEHFETPSGSYWDHIHCTQDGWSPAVPCLRKCYFPYLENGYNQNYGRKFVQGKSIDVACHPGYALPKAQTTVTCMENGWSPTPRCIRVKTCSKSSIDIENGFISESQYTYALKEKAKYQCKLGYVTADGETSGSITCGKDGWSAQPTCIKSCDIPVFMNARTKNDFTWFKLNDTLDYECHDGYESNTGSTTGSIVCGYNGWSDLPICYERECELPKIDVHLVPDRKKDQYKVGEVLKFSCKPGFTIVGPNSVQCYHFGLSPDLPICKEQVQSCGPPPELLNGNVKEKTKEEYGHSEVVEYYCNPRFLMKGPNKIQCVDGEWTTLPVCIVEESTCGDIPELEHGWAQLSSPPYYYGDSVEFNCSESFTMIGHRSITCIHGVWTQLPQCVAIDKLKKCKSSNLIILEEHLKNKKEFDHNSNIRYRCRGKEGWIHTVCINGRWDPEVNCSMAQIQLCPPPPQIPNSHNMTTTLNYRDGEKVSVLCQENYLIQEGEEITCKDGRWQSIPLCVEKIPCSQPPQIEHGTINSSRSSQESYAHGTKLSYTCEGGFRISEENETTCYMGKWSSPPQCEGLPCKSPPEISHGVVAHMSDSYQYGEEVTYKCFEGFGIDGPAIAKCLGEKWSHPPSCIKTDCLSLPSFENAIPMGEKKDVYKAGEQVTYTCATYYKMDGASNVTCINSRWTGRPTCRDTSCVNPPTVQNAYIVSRQMSKYPSGERVRYQCRSPYEMFGDEEVMCLNGNWTEPPQCKDSTGKCGPPPPIDNGDITSFPLSVYAPASSVEYQCQNLYQLEGNKRITCRNGQWSEPPKCLHPCVISREIMENYNIALRWTAKQKLYSRTGESVEFVCKRGYRLSSRSHTLRTTCWDGKLEYPTCAKR
# partner: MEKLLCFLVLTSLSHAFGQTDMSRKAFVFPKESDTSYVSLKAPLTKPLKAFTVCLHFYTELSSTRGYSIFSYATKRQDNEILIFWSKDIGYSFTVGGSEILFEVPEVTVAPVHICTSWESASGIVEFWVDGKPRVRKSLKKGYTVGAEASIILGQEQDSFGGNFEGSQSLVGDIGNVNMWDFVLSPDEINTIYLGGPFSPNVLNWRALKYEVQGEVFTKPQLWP
# Variants of: B1
# Conditions: with crp_human CRP
row,effect of a mutation on the interaction,Variant
1,decreasing interaction strength,Y402H
